Measurements: the supplement of paper PMC7125110
± gives the standard error. Variants at the floor of the assay were thinned out.

B1: glmS ribozyme (parent)
chain: AUAAAAGCGCCAGAACUACAGAAAUGUAGUUGACGAGGAGGAGGUUUAUCGAAUUUUCGGCGGAUGCCUCCAAA

How the values were obtained:
Settings in all cases: with glucosamine-6-phosphate
glucosamine-6-phosphate [1] = variants of: B1; experiment: self-cleavage kobs at 640 uM GlcN6P; higher = faster cleavage; RNA array
Procedure, shortened: (§1)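 Over ~14 h at 37 °C, tiles were imaged as glucosamine-6-phosphate (40 μM to 10 mM) in HEPES/KCl/Mg(OAc)2 buffer flowed across sequenced MiSeq chips. The chips carried barcoded ribozyme variants transcribed in situ by E. coli RNA polymerase and tracked with a hybridised Cy3 probe. After normalisation to baseline and to non-cleaving reference variants, one- or two-exponential decay fits of per-tile medians gave kobs. kcat and KM followed from weighted Michaelis–Menten fits across concentrations.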

glucosamine-6-phosphate [2] = variants of: B1; experiment: self-cleavage kobs at 2500 uM GlcN6P; higher = faster cleavage; RNA array
Procedure, shortened: as §1

glucosamine-6-phosphate [3] = variants of: B1; experiment: self-cleavage kobs at 10000 uM GlcN6P; higher = faster cleavage; RNA array
Procedure, shortened: as §1

| Variant | self-cleavage kobs at 640 uM GlcN6P (glucosamine-6-phosphate [1]) [s⁻¹] | self-cleavage kobs at 2500 uM GlcN6P (glucosamine-6-phosphate [2]) [s⁻¹] | self-cleavage kobs at 10000 uM GlcN6P (glucosamine-6-phosphate [3]) [s⁻¹] |
| --- | --- | --- | --- |
| AUAAAAUCGCCAGCACUACAGAAAUGUAGUUGACGACGAGGAGGUUUAUCGAAUUUUCGGCGGAUGCCUCCAAA [G7U A14C G37C] | < 1e-05 | < 1e-05 |  |
| AUAAAAGCGCCAGAACUACAGAAAUGUAGUUGACGAGCAGGAGGUUUAUCGAAUAUUCGGCGGCUGCCUCCAAA [G38C U55A A64C] | < 1e-05 |  |  |
| AUAAAAGCGCCAGAACUACAGAAAUGUAGUUGACGAGGAGGAGCUUUAUCGAAUUUUCGGCGGAUGCCUACAAA [G44C C70A] | < 1e-05 | < 1e-05 | < 1e-05 |
| AUAAAAGCGCCAGAACUACAGAAAUGUAGUUUACGAGGAGGAGGUUUAUCGUAUUUUUGGCGGAUGCCUCCAAA [G32U A52U C58U] | < 1e-05 | < 1e-05 |  |
| AUAAAAGCGCCAGUACUACAGAAAUGUAGUUGAUGACGAGGAGGUUUAUCAAAUCUUCGGCGGAUGCCUCCAAA [A14U C34U G37C G51A U55C] | < 1e-05 |  |  |
| AUAAAAGCGCCAGAGCUACAGAAAUGUAGUUGACGAGGAGGAGGUUUAUCGACUUUUCGGCGGAUGCUUCCAAA [A15G A53C C68U] | 4.28e-05 ± 2e-05 | 0.000114 ± 3.9e-05 |  |
| AUAAAAGCGCCAGAAUUACAGAAAUGUAGUUGACGAGGAGGAAGUUUAUCGAAUUUUCGGCGGAUGGCUCCAAA [C16U G43A C67G] | 0.000254 ± 6.6e-05 |  | 0.000419 ± 0.0001 |
| AUAAAAUCGCCAGGACUACAGAAAUGUAGUUGACGAGGAGGAGGUUUAUCGAAUUUUCGCCGGAUGCCUACAAA [G7U A14G G60C C70A] | < 1e-05 |  |  |
| AUAAAGGCGCGAGAACUACAGAAAUGUAGUUGAUGAGGAGGAGGGUUAUCGAAUUUUCGGCGGAUGCCUCCAAA [A6G C11G C34U U45G] | < 1e-05 |  |  |
| AUAAAAGCGCCAGACCUACAGAAAUGUAGUUGACGAGGAGGAGCUUUAUUGAAUUUUCGGCGGAUGCCUCCAAA [A15C G44C C50U] | < 1e-05 | < 1e-05 |  |
| AUAAAAGCGCCCGGACUACAGAAAUGUAGUUGACGAGGAGGAGGUUUAUCGAAUUUUCGUCGGAUGCCUCCAAA [A12C A14G G60U] | < 1e-05 |  |  |
| AUAAAAGCGCCCGAACUACAGAAAUGUAGUUGAAGAGGAGGAGGUUUAUCGAAUUUUCGGCGGAUGCCCCCAAA [A12C C34A U69C] | < 1e-05 |  |  |
| AUAAAAGCGCCAGAACUACAGAAAUGUAGUUGACAAGGAGGAGGUGUGUCGAAUUUUCGGCGGAUGCAUCUAAA [G35A U46G A48G C68A C71U] | < 1e-05 | < 1e-05 |  |
| AUAAAAGCGCCAGAACUACAGAAAUGUAGUUGUCGAGGAGUAGGUUUCUCGAAUUUUCGGCGGAUGCUUCCAAA [A33U G41U A48C C68U] | < 1e-05 |  |  |
| AUAAAAGCGCCAGAACUACAGAAAUGUAGUUGACGAAGAGGAGGCUUAUCGAAUUUUCGGCGGAUGCCUCCAAA [G37A U45C] | 5.03e-05 ± 1.6e-05 | 6.95e-05 ± 1.3e-05 | 0.000173 ± 4.9e-05 |
| AUAAAUGCGCCAGAACUACAGAAAUGUAGUUGACGAGGAUGAGGUUUAUCGAAUUUUCGGCGGACGCUUCCAAA [A6U G40U U65C C68U] | < 1e-05 | < 1e-05 |  |
| AUAAAAGCGCCAGAACUACAGAAAUGUAGUUGACGAGGGGGAGGUCUAUCGAAUUUUCGGCGGAUGCCUCUAAA [A39G U46C C71U] | 0.00179 ± 0.00048 |  |  |
| AUAAAAGCGCCAGAACUACAGAAAUGUAGUUGCCGAGGAGGAUGUUUAUCGAAUUUUCGGCGUAUGCCUCCAAA [A33C G43U G63U] | < 1e-05 | < 1e-05 | < 1e-05 |
| AUAAAAGCGCCUGAACUACAGAAAUGUAGCUGACGAGGAGGAGGUUUAUCGACUUUUCGGCGGAUGCCUCCAAA [A12U U30C A53C] | 0.000316 ± 0.0001 | 0.000389 ± 0.00012 | 0.00132 ± 0.00056 |
| AUAAAAGCGCCGGAGCUACAGAAAUGUAGUUGACAAGGAGGAGGUUUAUCGAAUUUUCGGCGGAUGCGUCCAAA [A12G A15G G35A C68G] | < 1e-05 |  |  |
| AUAAAAGCGCCGGAACUACAGAAAUGUAGUUGACGAGGAGGAGGUUUAUCGAAUUUUCCGCGGUUGCCUCCAAA [A12G G59C A64U] | < 1e-05 |  |  |
| AUAAAAGCGCCAGAGCUACAGAAAUGUAGUUGAAGAGGAGGAGGUUUAUCGAAUUUUCGGCGGAUGCCUCUAAA [A15G C34A C71U] | < 1e-05 | < 1e-05 |  |
